# According to patent publication US20230340054A1:
# Biological target: IL-2 receptor on the cell surface (high and intermediate affinity receptors on human PBMC subsets)
# Assay: cell-based or functional assay
pSTAT5α levels in CD4+ cells,pSTAT5α levels in CD8+ cells,Substance
1.05,1.09,IgG fusion IL-2 mutein H16K
1.77,1.2,IgG fusion IL-2 mutein I92F
1.6,1.13,IgG fusion IL-2 mutein P65Q
1.59,1.31,IgG fusion IL-2 mutein P65K
1.9,1.14,IgG fusion IL-2 mutein T111H
2.19,0.946,IgG fusion IL-2 mutein E68F
1.56,1.05,IgG fusion IL-2 mutein E95Q
2.23,1.16,IgG fusion IL-2 mutein K48S
1.64,1.02,IgG fusion IL-2 mutein E95T
0.981,1.05,IgG fusion IL-2 mutein E95N
1.2,1.04,IgG fusion IL-2 mutein N88S
1.28,0.906,IgG fusion IL-2 mutein D109M
2.23,1.5,IgG fusion IL-2 mutein D20N
2.36,1.22,IgG fusion IL-2 mutein E68R
2,1.07,IgG fusion IL-2 mutein S87T
1.11,1.29,IgG fusion IL-2 mutein P34Y
1,0.825,IgG fusion IL-2 mutein S87E
1.74,1.23,IgG fusion IL-2 mutein T111M
1.62,1.02,IgG fusion IL-2 mutein E95D
1.4,1.63,IgG fusion IL-2 mutein H16R
1.65,0.939,IgG fusion IL-2 mutein L72F
1.64,1.08,IgG fusion IL-2 mutein T111N
1.98,1.18,IgG fusion IL-2 mutein F42M

pSTAT5α levels in CD4+ cells,pSTAT5α levels in CD8+ cells,Substance
1.6,0.93,IgG fusion IL-2 mutein L72R
2.01,1.16,IgG fusion IL-2 mutein E68L
1.66,0.932,IgG fusion IL-2 mutein E15S
1.09,1.01,IgG fusion IL-2 mutein E15D
1.94,1.12,IgG fusion IL-2 mutein I92Y
1.21,0.96,IgG fusion IL-2 mutein D84T
1.46,1.7,IgG fusion IL-2 mutein D20T
1.75,1.21,IgG fusion IL-2 mutein H16Y
2.6,1.28,IgG fusion IL-2 mutein E68Y
1.12,1.18,IgG fusion IL-2 mutein K48V
1.58,1.15,IgG fusion IL-2 mutein T111W
2.85,1.88,IgG fusion IL-2 mutein P34F
0.981,1.08,IgG fusion IL-2 mutein I92V
1.58,1.02,IgG fusion IL-2 mutein N71W
1.77,1.27,IgG fusion IL-2 mutein D109R
2,1.4,IgG fusion IL-2 mutein E68Q
1.89,1.1,IgG fusion IL-2 mutein P34W
2.47,1.24,IgG fusion IL-2 mutein T111S
1.77,1.32,IgG fusion IL-2 mutein D109K
2.39,1.19,IgG fusion IL-2 mutein K35T
1.91,1.05,IgG fusion IL-2 mutein M23L
2.22,1.04,IgG fusion IL-2 mutein L19I
2.35,1.59,IgG fusion IL-2 mutein L12I

pSTAT5α levels in CD4+ cells,pSTAT5α levels in CD8+ cells,Substance
1.61,0.957,IgG fusion IL-2 mutein D84E
1.3,1.18,IgG fusion IL-2 mutein E61W
1.3,1.01,IgG fusion IL-2 mutein L12Y
1.71,1.07,IgG fusion IL-2 mutein P65N
1.25,0.851,IgG fusion IL-2 mutein M104I
1.51,1.05,IgG fusion IL-2 mutein P65E
1.11,0.986,IgG fusion IL-2 mutein I92W
1.49,1.06,IgG fusion IL-2 mutein L19F
3.06,1.79,IgG fusion IL-2 mutein E15T
1.67,1.15,IgG fusion IL-2 mutein P65R
1.2,1.05,IgG fusion IL-2 mutein D84S
1.53,1.05,IgG fusion IL-2 mutein D109W
1.96,0.997,IgG fusion IL-2 mutein E68W
1.01,1.1,IgG fusion IL-2 mutein D109H
1.83,1.16,IgG fusion IL-2 mutein M23I
1.47,1,IgG fusion IL-2 mutein E95S
1.01,0.989,IgG fusion IL-2 mutein M104H
1.64,1.03,IgG fusion IL-2 mutein L12V
1.02,1.18,IgG fusion IL-2 mutein E106W
1.31,0.953,IgG fusion IL-2 mutein L19V
2.1,1.28,IgG fusion IL-2 mutein T111Q
1.24,1.16,IgG fusion IL-2 mutein K43W
0.944,0.868,IgG fusion IL-2 mutein K48I
